# Where no end group is shown, it is not given here.
# Legend:
# PSMA Fab (006 PSMA Fab) [1] = molecular target: T1, PSMA Fab (006 PSMA Fab) (Fab biotinylated for capture on neutravidin plates (site not given)); assay: clonal phage ELISA; biotinylated PSMA Fab on neutravidin plate, wells pre-incubated with PSMA antigen as competitor; anti-M13-HRP detection
# T1 construct: also called Anti-PSMA Fab; anti-PSMA Fab
# PSMA Fab (006 PSMA Fab) [2] = molecular target: T1, PSMA Fab (006 PSMA Fab); assay: clonal phage ELISA; biotinylated PSMA Fab on neutravidin plate, blocking buffer alone; anti-M13-HRP detection;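 further: clonal phage applied as crude supernatants to wells preincubated with blocking buffer, binding read by ELISA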
# Method: (§1) Clonal phage were harvested as crude supernatants and screened via standard ELISAs. […] Prior to the addition of clonal phage. wells were incubated with blocking buffer and PSMA antigen or blocking buffer alone. Without washing or aspirating, clonal phage supernatants were then added to the wells and incubated for a short time. Wells were then washed followed by detection of bound phage using a horse radish conjugated anti-M13 antibody.
# Anti-PSMA Fab [3] = molecular target: T2, Anti-PSMA Fab; assay: clonal phage ELISA on biotinylated PSMA Fab captured on neutravidin plate, anti-M13 HRP detection, blocking buffer alone
# T2 construct: Biotinylated and captured on neutravidin coated plates in the phage ELISA; also called 006 PSMA Fab
# Method: as §1
# Anti-PSMA Fab [4] = molecular target: T2, Anti-PSMA Fab; assay: clonal phage ELISA on captured PSMA Fab pre-incubated with PSMA antigen as competitor, anti-M13 HRP detection;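 further: crude clonal phage supernatants tested by ELISA, wells first treated with blocking buffer plus PSMA antigen, bound phage read out via HRP-linked anti-M13 antibody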
# Method: as §1
# PSMA Fab [5] = molecular target: T3, PSMA Fab (biotinylated (site not stated)); assay: clonal phage ELISA on PSMA Fab pre-incubated with PSMA antigen as competitor
# T3 construct: Biotinylated PSMA Fab captured on neutravidin coated plates in the phage ELISA; also called Anti-PSMA Fab; 006 PSMA Fab
# PSMA Fab [6] = molecular target: T3, PSMA Fab; assay: clonal phage ELISA, biotinylated PSMA Fab on neutravidin plate, anti-M13 HRP detection;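 further: crude clonal phage supernatants added to wells pretreated with blocking buffer either with or without PSMA antigen, bound phage read after washing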
# Method: as §1
Binder,"Phage binding ELISA signal, Anti-PSMA Fab (Anti-PSMA Fab [3])","Phage binding ELISA signal, Anti-PSMA Fab with PSMA antigen (Anti-PSMA Fab [4])","Phage binding ELISA signal, Anti-PSMA Fab with PSMA antigen (PSMA Fab [5])","Phage binding ELISA signal, Anti-PSMA Fab (PSMA Fab [6])",further results
VLRSCVPEWMCSGF (also called Peptide-180 library clone; not shown: pIII filament protein of the bacteriophage) [Phage-3462],,,,,"Phage binding ELISA signal, Anti-PSMA Fab in presence of PSMA antigen (PSMA Fab (006 PSMA Fab) [1]): 0.075; Phage binding ELISA signal, Anti-PSMA Fab (PSMA Fab (006 PSMA Fab) [2]): 1.74"
VEKMCRPLWMCHGF (also called Peptide-180 library clone; not shown: pIII filament protein of the bacteriophage) [Phage-3457],,,,,"Phage binding ELISA signal, Anti-PSMA Fab in presence of PSMA antigen (PSMA Fab (006 PSMA Fab) [1]): 0.0944; Phage binding ELISA signal, Anti-PSMA Fab (PSMA Fab (006 PSMA Fab) [2]): 1.74"
"TVHYCTPSWMCTGF (cysteine pairing not given here; also: fused to pIII of bacteriophage, pIII and linker not given here, Peptide-180 library clone, tested as clonal phage supernatant with the peptide fused to pIII of the bacteriophage) [Phage-3498]",1.7,0.0866,,,
EAIRCVPVWMCQGF (tested as crude clonal phage supernatant) [Phage-3485],,,0.0989,1.72,
"YDHFCVPRWMCEGL (cysteine pairing not given here; also: fused to pIII of bacteriophage, pIII and linker not given here, Peptide-180 library clone, tested as clonal phage supernatant with the peptide fused to pIII of the bacteriophage) [Phage-3500]",1.7,0.0592,,,
VVAQCVPRWMCDGF (also called Peptide-180 library clone; not shown: pIII filament protein of the bacteriophage) [Phage-3458],,,,,"Phage binding ELISA signal, Anti-PSMA Fab in presence of PSMA antigen (PSMA Fab (006 PSMA Fab) [1]): 0.103; Phage binding ELISA signal, Anti-PSMA Fab (PSMA Fab (006 PSMA Fab) [2]): 1.74"
VWKTCVPEWMCVGY (tested as crude clonal phage supernatant) [Phage-3477],,,0.112,1.73,
"PLRYCEPAWMCFGF (cysteine pairing not given here; also: fused to pIII of bacteriophage, pIII and linker not given here, Peptide-180 library clone, tested as clonal phage supernatant with the peptide fused to pIII of the bacteriophage) [Phage-3501]",1.7,0.0601,,,
EFIKCEPKWMCQGF (tested as crude clonal phage supernatant) [Phage-3480],,,0.0826,1.72,
"WLYSCIPQWMCTGF (cysteine pairing not given here; also: fused to pIII of bacteriophage, pIII and linker not given here, Peptide-180 library clone, tested as clonal phage supernatant with the peptide fused to pIII of the bacteriophage) [Phage-3502]",1.7,0.127,,,
"DYMMCSPDWMCKGF (cysteine pairing not given here; also: fused to pIII of bacteriophage, pIII and linker not given here, Peptide-180 library clone, tested as clonal phage supernatant with the peptide fused to pIII of the bacteriophage) [Phage-3494]",1.7,0.0722,,,
"QDMVCRPAWMCTGF (cysteine pairing not given here; also: fused to pIII of bacteriophage, pIII and linker not given here, Peptide-180 library clone, tested as clonal phage supernatant with the peptide fused to pIII of the bacteriophage) [Phage-3496]",1.7,0.0848,,,
"YPTWCVPTWMCTGM (cysteine pairing not given here; also: fused to pIII of bacteriophage, pIII and linker not given here, Peptide-180 library clone, tested as clonal phage supernatant with the peptide fused to pIII of the bacteriophage) [Phage-3493]",1.71,0.0716,,,
TELLCTPRWMCEGF (also called Peptide-180 library clone; not shown: pIII filament protein of the bacteriophage) [Phage-3461],,,,,"Phage binding ELISA signal, Anti-PSMA Fab in presence of PSMA antigen (PSMA Fab (006 PSMA Fab) [1]): 0.163; Phage binding ELISA signal, Anti-PSMA Fab (PSMA Fab (006 PSMA Fab) [2]): 1.74"
"LEMVCKPEWMCLGL (cysteine pairing not given here; also: fused to pIII of bacteriophage, pIII and linker not given here, Peptide-180 library clone, tested as clonal phage supernatant with the peptide fused to pIII of the bacteriophage) [Phage-3491]",1.71,0.0996,,,
YSQMCKPAWMCNGF (tested as crude clonal phage supernatant) [Phage-3486],,,0.101,1.72,
MDARCVPSWMCIGV (tested as crude clonal phage supernatant) [Phage-3479],,,0.48,1.72,

Binder,"Phage binding ELISA signal, Anti-PSMA Fab (Anti-PSMA Fab [3])","Phage binding ELISA signal, Anti-PSMA Fab with PSMA antigen (Anti-PSMA Fab [4])","Phage binding ELISA signal, Anti-PSMA Fab with PSMA antigen (PSMA Fab [5])","Phage binding ELISA signal, Anti-PSMA Fab (PSMA Fab [6])",further results
YFKHCVPQWMCEGF (tested as crude clonal phage supernatant) [Phage-3482],,,0.146,1.72,
SPPLCVPVWMCHGF (also called Peptide-180 library clone; not shown: pIII filament protein of the bacteriophage) [Phage-3459],,,,,"Phage binding ELISA signal, Anti-PSMA Fab in presence of PSMA antigen (PSMA Fab (006 PSMA Fab) [1]): 0.148; Phage binding ELISA signal, Anti-PSMA Fab (PSMA Fab (006 PSMA Fab) [2]): 1.74"
"DILRCVPEWMCTGF (cysteine pairing not given here; also: fused to pIII of bacteriophage, pIII and linker not given here, Peptide-180 library clone, tested as clonal phage supernatant with the peptide fused to pIII of the bacteriophage) [Phage-3492]",1.71,0.0911,,,
"SMAWCVPNWMCTGF (cysteine pairing not given here; also: fused to pIII of bacteriophage, pIII and linker not given here, Peptide-180 library clone, tested as clonal phage supernatant with the peptide fused to pIII of the bacteriophage) [Phage-3495]",1.7,0.0897,,,
VSPMCRPAWMCEGL (tested as crude clonal phage supernatant) [Phage-3476],,,0.0909,1.73,
"VDRICKPDWMCAGF (cysteine pairing not given here; also: fused to pIII of bacteriophage, pIII and linker not given here, Peptide-180 library clone, tested as clonal phage supernatant with the peptide fused to pIII of the bacteriophage) [Phage-3497]",1.7,0.091,,,
AERMCVPSWMCQGL (tested as crude clonal phage supernatant) [Phage-3484],,,0.0943,1.72,
ITQMCKPAWMCVGL (tested as crude clonal phage supernatant) [Phage-3488],,,0.123,1.72,
NAIMCRPAWMCSGF (also called Peptide-180 library clone; not shown: pIII filament protein of the bacteriophage) [Phage-3460],,,,,"Phage binding ELISA signal, Anti-PSMA Fab in presence of PSMA antigen (PSMA Fab (006 PSMA Fab) [1]): 0.0847; Phage binding ELISA signal, Anti-PSMA Fab (PSMA Fab (006 PSMA Fab) [2]): 1.74"
DTIACRPEWMCTGF (tested as crude clonal phage supernatant) [Phage-3481],,,0.0607,1.72,
ITPACVPEWMCLGL (tested as crude clonal phage supernatant) [Phage-3483],,,0.0774,1.72,
LDRMCVPLWMCEGF (tested as crude clonal phage supernatant) [Phage-3489],,,0.0991,1.71,
"THPLCVPTWMCSGF (cysteine pairing not given here; also: fused to pIII of bacteriophage, pIII and linker not given here, Peptide-180 library clone, tested as clonal phage supernatant with the peptide fused to pIII of the bacteriophage) [Phage-3499]",1.7,0.0862,,,
SDKFCVPEWMCEWI (tested as crude clonal phage supernatant) [Phage-3478],,,0.0588,1.72,
PVAVCKPAWMCEGF (tested as crude clonal phage supernatant) [Phage-3487],,,0.0982,1.72,
"EAPACVPVWMCNGF (cysteine pairing not given here; also: fused to pIII of bacteriophage, pIII and linker not given here, Peptide-180 library clone, tested as clonal phage supernatant with the peptide fused to pIII of the bacteriophage) [Phage-3503]",1.7,0.0778,,,
"VNMICKPAWMCKGF (cysteine pairing not given here; also: fused to pIII of bacteriophage, pIII and linker not given here, Peptide-180 library clone, tested as clonal phage supernatant with the peptide fused to pIII of the bacteriophage) [Phage-3490]",1.71,0.0872,,,

# Reference: patent US20260242478A1 (published 2026)
